Columns and labels:
PcrA [1] = target: T1, PcrA (Geobacillus stearothermophilus, UniProt P56255); experiment: stopped-flow fluorescence, quench-flow HPLC, Pi release, single turnover; type: biochemical; details: 8 μM PcrA, 10 μM dT20, 2 μM deac-aminoATP; 3 mM MgCl2, pH 7.5; labelled compound
T1 construct: recombinant, prepared as described previously
T1 sequence (P56255 1-724): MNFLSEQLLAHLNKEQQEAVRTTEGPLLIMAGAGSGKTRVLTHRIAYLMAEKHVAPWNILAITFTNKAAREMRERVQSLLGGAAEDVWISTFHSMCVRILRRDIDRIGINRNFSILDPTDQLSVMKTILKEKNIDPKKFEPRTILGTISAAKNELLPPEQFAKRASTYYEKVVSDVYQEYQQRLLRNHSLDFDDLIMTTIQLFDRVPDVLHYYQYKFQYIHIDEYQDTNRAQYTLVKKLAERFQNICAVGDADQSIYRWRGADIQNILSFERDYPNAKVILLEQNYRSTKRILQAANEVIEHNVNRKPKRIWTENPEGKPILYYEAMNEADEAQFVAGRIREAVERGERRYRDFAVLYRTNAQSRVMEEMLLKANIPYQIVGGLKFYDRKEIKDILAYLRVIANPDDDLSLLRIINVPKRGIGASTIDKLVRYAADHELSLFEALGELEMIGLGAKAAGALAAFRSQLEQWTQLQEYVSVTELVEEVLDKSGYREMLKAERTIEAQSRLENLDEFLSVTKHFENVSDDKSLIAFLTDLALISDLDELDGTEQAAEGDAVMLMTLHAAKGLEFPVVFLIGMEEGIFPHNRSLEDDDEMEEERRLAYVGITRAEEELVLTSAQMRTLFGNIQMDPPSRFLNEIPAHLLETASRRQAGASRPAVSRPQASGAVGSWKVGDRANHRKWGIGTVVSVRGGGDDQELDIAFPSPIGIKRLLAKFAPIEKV

PcrA [2] = target: T1, PcrA; experiment: stopped-flow fluorescence, koff/kon; type: binding
[3] = substrate: CNc1ccccc1C(=O)O[C@H]1C[C@H](n2cnc3c(N)ncnc32)O[C@@H]1COP(=O)(O)OP(=O)(O)OP(=O)(O)O; experiment: steady-state ATPase, MDCC-PBP phosphate release; type: biochemical, Deinococcus radiodurans; details: with 500 nM dT20 ssDNA, 10 mM MgCl2, pH 7.5, 20 °C
Description: (§1) steady-state ATPase, MDCC-PBP phosphate release on RecD2

[4] = substrate: Nc1ncnc2c1ncn2[C@@H]1O[C@H](COP(=O)(O)OP(=O)(O)OP(=O)(O)O)[C@@H](O)[C@H]1O; experiment: steady-state ATPase, MDCC-PBP phosphate release; type: biochemical, Deinococcus radiodurans; details: with 500 nM dT20 ssDNA, 10 mM MgCl2, pH 7.5, 20 °C
Description: as §1

For CCN(CC)c1ccc2cc(C(=O)N[C@H]3[C@@H](O)[C@H](n4cnc5c(N)ncnc54)O[C@@H]3COP(=O)(O)OP(=O)(O)OP(=O)(O)O)c(=O)oc2c1 [deac-aminoATP, 3′-(7-diethylaminocoumarin-3-carbonylamino)-3′-deoxyadenosine-5′-triphosphate], the “stopped-flow fluorescence, quench-flow HPLC, Pi release, single turnover” value (PcrA [1]) was “After mixing excess PcrA·dT20 with deac-aminoATP, there was a biphasic increase in fluorescence”.

In the case of CCN(CC)c1ccc2cc(C(=O)N[C@H]3[C@@H](O)[C@H](n4cnc5c(N)ncnc54)O[C@@H]3COP(=O)(O)OP(=O)(O)O)c(=O)oc2c1 [deac-aminoADP], the Kd (PcrA [2]) is reported as 1700 nM.

B1: RecD2 (Deinococcus radiodurans R1 = ATCC 13939 = DSM 20539) (protein)
chain: SQQGLERRLLAGLQGLGLTINQAQRAVKHFGADALDRLEKDLFTLTEVEGIGFLTADKLWQARGGALDDPRRLTAAAVYALQLAGTQAGHSFLPRSRAEKGVVHYTRVTPGQARLAVETAVELGRLSEDDSPLFAAEAAATGEGRIYLPHVLRAEKKLASLIRTLLATPPADGAGNDDWAVPKKARKGLSEEQASVLDQLAGHRLVVLTGGPGTGKSTTTKAVADLAESLGLEVGLCAPTGKAARRLGEVTGRTASTVHRLLGYGPQGFRHNHLEPAPYDLLIVDEVSMMGDALMLSLLAAVPPGARVLLVGDTDQLPPVDAGLPLLALAQAAPTIKLTQVYRQAAKNPIIQAAHGLLHGEAPAWGDKRLNLTEIEPDGGARRVALMVRELGGPGAVQVLTPMRKGPLGMDHLNYHLQALFNPGEGGVRIAEGEARPGDTVVQTKNDYNNEIFNGTLGMVLKAEGARLTVDFDGNVVELTGAELFNLQLGYALTVHRAQGSEWGTVLGVLHEAHMPMLSRNLVYTALTRARDRFFSAGSASAWQIAAARQREARNTALLERIRAH
notes: N-terminal truncation lacking the first 150 amino acids; recombinant; monomer
B1 gave a Km [3] of 12.1 ± 1.7 µM, a kcat [3] of 40.2 ± 2.4 s⁻¹ and a Km [4] of 30.3 ± 1.5 µM. The kcat [4] was 86.9 ± 1.5 s⁻¹.

Source: paper PMC3757182, “ATPase Mechanism of the 5′-3′ DNA Helicase, RecD2” (The Journal of Biological Chemistry, 2013)
